For this data set, the target named is T1, IFIT2 (GST-Ifit2, wild type) (Mus musculus, UniProt Q64112 1-472).
T1 sequence: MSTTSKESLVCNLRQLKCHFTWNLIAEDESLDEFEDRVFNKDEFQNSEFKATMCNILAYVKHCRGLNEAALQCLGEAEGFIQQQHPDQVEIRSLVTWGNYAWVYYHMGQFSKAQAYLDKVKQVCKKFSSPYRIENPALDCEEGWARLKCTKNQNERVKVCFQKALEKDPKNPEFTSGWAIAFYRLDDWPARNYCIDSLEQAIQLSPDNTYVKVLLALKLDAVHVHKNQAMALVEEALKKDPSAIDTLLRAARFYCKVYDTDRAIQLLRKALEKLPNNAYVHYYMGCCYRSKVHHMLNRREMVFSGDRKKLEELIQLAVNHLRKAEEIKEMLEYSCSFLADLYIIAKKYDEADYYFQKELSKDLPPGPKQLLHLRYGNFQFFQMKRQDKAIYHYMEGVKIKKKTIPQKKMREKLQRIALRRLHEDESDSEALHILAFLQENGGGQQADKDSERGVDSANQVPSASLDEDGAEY
Put plainly: EMSA; 250 nM protein; at least two complexes; EMSA: 10 fmol labeled RNA in 10 uL, 250 nM protein, 50 mM Tris pH 8, 90 mM NaCl, 1 mM MgCl2, 9% glycerol, 0.05% Triton X-100, 30 min on ice; 6% native PAGE at 4 C. As to conditions: protein: recombinant; tags: N-terminal GST (pGEX-6P-3); chain copies: 2; label: 5'-32P (T4 PNK); single strand.

As for AUUAAUUUAUAAUUUAAAUUAUUUUCUACUUU (ssRNA) [32-nt AU-rich ssRNA], the binding result was “binds”.

For the origin of these results see publication PMC11253605.
